In the DeepSol protein solubility set:

Assay: soluble on expression in E. coli; label from the status in PepcDB or PDB records

Row | Sequence | soluble on expression in E. coli
1 | MEADVEQQALTLPDLAEQFAPPDIAPPLLIKLVEAIEKKGLECSTLYRTQSSSNLAELRQLLDCDTPSVDLEMIDVHVLADAFKRYLLDLPNPVIPAAVYSEMISLAPEVQSSEEYIQLLKKLIRSPSIPHQYWLTLQYLLKHFFKLSQTSSKNLLNARVLSEIFSPMLFRFSAASSDNTENLIKVIEILISTEWNERQPAPALPPKPPKPTTVAN | soluble
2 | GREQMASFESAYVALSRMKQHVQVYTDNREGWIKAIKNSPEKATAHDILEPRNDRAVKTADLLFGRARPLDETAAGRAALQQSGLAQGSSPGKFISPGKKYPQPHVALPAFDKNGKAAGIWLSPLTDRDGRLEAIGGEGRIMGNEDARFVALQNSRNGESLLAGNMGEGVRMARDNPDTGVVVRLAGDDRPWNPGAMTGGRVWAEPAPVAPVPQAGADIILPPEVLAQRAAEEQQRREMEKKAEQTAREMAGEARKAG | not soluble
3 | MSLQTQLVHELVENQPTKLLIYVKNIRTIRTKKGEQMAFVDGDDTTGSISLTLFPTVFRQLRQSVEKGQVYYVEGKVERSTYNQELQILVQRIEKAQQVETSISDETCFIRITKDVEQTDVFQKMKEVLSRHAGHIPVIVYFEKTGKKIVLNEENWVAHTSASQQQLAYVLGEQNVIFKEGHHHHHH | soluble
4 | DAPAVGKDLTQAAENIPPAFHNAPRQGELPALNYVNQPPMVPHSVANYQVTKNVNQCLNCHSPENSRLSGATRISPTHFMDRDGKVGSSSSPRRYFCLQCHVSQANVDPIVPNDFKPMKGYGN | soluble
5 | MAHHHHHHMLNLSSLLISKKNVKDDGNNSSENEVGGNNDVSSLNNDCVKIKLINMQEYKTKKLLDERKNVNVWSANNKKDNDKKEKKKEKKNEQPKKKESVVTKPKAVGENDTKKIENKDIENKNVTPKKLFVPSAIKQQQQKEALKNKQTPKKEEELFPDLIQSKKSNKTEKEKKKTQPAKKSKKEKADKKVQESTKEQENEFPQIEEIEKIHFNIFDFIDMEKQTYEHIVRNSEKVLQKYKNRSKFVDSMIMCN | not soluble
6 | MGHHHHHHSHMLSHFETNSALLEQLSELQGSTEPFLTEHPHMAAEHTVNWLTIAALSSAIDKNEEKLAALSEKCVVFQLFLASATGQKQFFKKFEVSENLDEVKAFKSRMRSRAQAKGEKPEKINLNQGTVDSRQFLEELKQLENLKKVRFIGKFVRKLILIVKFKFYE | not soluble
7 | MGSDKIHHHHHHMAFAQLQIVSSLADAYSKDGADALILIGNFDSIDDSALAETIQQAQITDQRVGKQPLLLKADGVPGQRLVAAPTGPLNRDFDDVRQVFDAAHAAAKVAQDAGARHPVIALNNVNVNDERYQQAFLAAYLGFCQALYQPLEAREAHGEEAIEPTQNVILVGELDVEWAMAVEAGKRVARDLAGTEPERMAPPKFAEYCRQAFAHTSVKVTVIDDYQQLQHEYPLLAAVGRSSMAVERHRPCVIRLEYHGNNPERTVMFAGKGIVYDTGGADLKTGGHMAGMSRDKGGAAGVAGFLKTVSELQPEHLNVVAEIGAVRNSIGSDAFVADEIITGHSGKRVRIGNTDAEGRLIMADLLSHLREEAAKSDGEHELYTVATLTGHAALSKGPYSALVPNGHARRQNLAQALFNAGETYGDPTEISWSRREDFDFVKGRTLCDDLLSSNNGPSAATPRGHQFPMAFLTGVSGLDNHGIDSEHPISYIHIDIAGSGVEGGDWQHGKPTAAPVTCLAGHYLKK | not soluble
8 | MHSIYKFSTCNVHRESPLRVRVEDLTVAYNGEPVLSGVNLEFRGPGLVQIIGPNGAGKTTFLKAILGLIKPARGRVFLDGFEATGRPEMVGRYAGYVPQNPSAPKLSPMTVREFVETSLRLRGVTRARERAVEVLHTLGIRGEVLESRLWELSMGMLQRVFIARAIAPDPKMLVMDEPLASVDPAGRMEIARIIAGLARERLVLMTSHDPSLLLGHTDIIVVINRDLIASGPPEEVYREDVLRRVYGESVARGLVLAGEGGAHG | soluble
9 | MPSSIICDVSHEGEASGGPSPSSRISNGFSHTVCDLHHNFPIVKNRRKYHNSISTQSSSSTTTSLERISTSTCTSTSSSASDAIISRAEKDVQTFLVSDESTTGDHEEEEEDDEDGDDESDHNDYDYEDDGERSEHDHEQTDNDDDEDEIEPFVSSWCFAMGTQRSVMSSVGEKAPKSNVKSMEDWELDVVERAHRESHLAELYADLSWRFYTHPPTSFCLARVFLRHGLTGNEGVSSWKLPRKANRRNSSCSSISSVSESSSPSALDESTLTKILPTDNFRGGRGFASPSPPTSLLSEPLSRMDVLSEKIWDYHNKVSQTDEMLQRKLHLRDMLYTAISPVFPLSGLYVVGSSLNGFGNNSSDMDLCLMITNKDLDQKNDAVVVLNLILSTLQYEKFVESQKLILAKVPILRINFAAPFDDITVDLNANNSVAIRNTHLLCYYSSYDWRVRPLVSVVKEWAKRKGINDANKSSFTSYSLVLMVIHFLQCGPTKVLPNLQQSYPNRFSNKVDVRTLNVTMALEEVADDIDQSLSEKTTLGELLIGFLDYYANEFNYDRDAISIRQGRRVERAALAVRPKIHSNSEGDKETPPPSSSASTSSIHNGGTPGIPMHHSISNPHFWRSQWRCVCIEEPFTNSNTAHSIYDEMVFEAIKKAFREAHGELQHNHDLDKLMECEPIKASTTNTGAAVFAATYEGERPLAQQPNTIACASLRVLNSIPVSSGPGHYHYQQQSNQNLSRPQRPGSNQGYQMNNNRGFNGNNQQQHQNRRSFNNQSSSNPGNGSTGPRSSRSNENVRDSSRQQNSQKGSSGVSVSKENVASTTGVPVDKKQQNSNRKDDGNRTKRSPMVQSPEPAKTKSEKTPMASSNVSQ | not soluble
10 | MGSSHHHHHHSSGLVPRGSHMSKFSYLQNGKASTNGVPHANGHHQQHQNGHSNGVARNGGTATDTLPVAYQQKAATSGPFHMPRTEHVGYTYDTLQEIATYLLERTELRPKVGIICGSGLGTLAEQLTDVDSFDYETIPHFPVSTVAGHVGRLVFGYLAGVPVMCMQGRFHHYEGYPLAKCAMPVRVMHLIGCTHLIATNAAGGANPKYRVGDIMLIKDHINLMGFAGNNPLQGPNDERFGPRFFGMANTYDPKLNQQAKVIARQIGIENELREGVYTCLGGPNFETVAEVKMLSMLGVDAIGMSTVHEIITARHCGMTCFAFSLITNMCTMSYEEEEEHCHDSIVGVGKNREKTLGEFVSRIVKHIHYEAKK | soluble
11 | GMAKKTLILYYSWSGETKKMAEKINSEIKDSELKEVKVSEGTFDADMYKTSDIALDQIQGNKDFPEIQLDNIDYNNYDLILIGSPVWSGYPATPIKTLLDQMKNYRGEVASFFTSAGTNHKAYVSHFNEWADGLNVIGVARDDSEVDKWSK | soluble
12 | MGSDKIHHHHHHMTTHLTGTRDEWLTARRALLDAEKTLTRHSDALARRREALPWVRVDKTYRFDTEHGAATLDDLFDGRSQLLVYHFMFGPDYKAGCPSCSALADGFDGFAVHLANHDVTLAAVSRAPLAKLLAYRQRMGWRFPWASSEGGAFNFDFNVSFTEAQQRTGDVEYNYARAAHAMDVDPPPAAVAQFAATCGTDAATYARDRPGMSAFVREDGVVYHTYSTYARGLDALWGMYAWLDRAPLGRNETGVWWRRHDEYARD | not soluble
13 | MKILTIDTSTSTCSAALSIDGRCAGEYLLEAERHPSERLLAAVDILLRDTGMELEELDGFGVALGPGSFTGVRIGVATVKGLALATGKPAVGFSSLAMLALNLPWSLLPVCTLFDARKKEVYGGLYRVTSAPEPVIVDRVAPPERFLEAIEGEAIFVGDGAIRYREAIESILGHRAFFAPAHCHQPRASAGALLAGELLRTGAAVPLPLLNPTYIRPSEAELARMCQKAVAAALEHHHHHH | not soluble
14 | MGSDKIHHHHHHMNTDLTLVIMAAGLGSRFGGDKQLASLGPSGEPMLVLSILSAIRSGFQRAVLVIRPELEAELTGILTQFLPANFEYHFCYQSLSDLPQDAKLADLSHRLKPWGTAHALWCARDWVKGPMAVINADDFYGDSAFASLAKGLTARPNDWMMVAYPIELTLSEHGGVNRGLCQVAQGQLRSVAEWLNIQAQDDGFVGEGPNGLAKLPLQSLVSMTCWGFSPSIFNVIKQQLTAFIEQQGQLPKSECYLPAVVQAAIEQGVPVYVDVASEPWLGVTYPQDTVWVKQKLMELLGDKTH | not soluble
